Data: IntAct's records for PubMed 29039417

B1: BBSome complex member BBS5 (Homo sapiens), Q8N3I7 (parent)
chain: MSVLDALWEDRDVRFDLSAQQMKTRPGEVLIDCLDSIEDTKGNNGDRGRLLVTNLRILWHSLALSRVNVSVGYNCILNITTRTANSKLRGQTEALYILTKCNSTRFEFIFTNLVPGSPRLFTSVMAVHRAYETSKMYRDFKLRSALIQNKQLRLLPQEHVYDKINGVWNLSSDQGNLGTFFITNVRIVWHANMNDSFNVSIPYLQIRSIKIRDSKFGLALVIESSQQSGGYVLGFKIDPVEKLQESVKEINSLHKVYSASPIFGVDYEMEEKPQPLEALTVEQIQDDVEIDSDGHTDAFVAYFADGNKQQDREPVFSEELGLAIEKLKDGFTLQGLWEVMS
partner: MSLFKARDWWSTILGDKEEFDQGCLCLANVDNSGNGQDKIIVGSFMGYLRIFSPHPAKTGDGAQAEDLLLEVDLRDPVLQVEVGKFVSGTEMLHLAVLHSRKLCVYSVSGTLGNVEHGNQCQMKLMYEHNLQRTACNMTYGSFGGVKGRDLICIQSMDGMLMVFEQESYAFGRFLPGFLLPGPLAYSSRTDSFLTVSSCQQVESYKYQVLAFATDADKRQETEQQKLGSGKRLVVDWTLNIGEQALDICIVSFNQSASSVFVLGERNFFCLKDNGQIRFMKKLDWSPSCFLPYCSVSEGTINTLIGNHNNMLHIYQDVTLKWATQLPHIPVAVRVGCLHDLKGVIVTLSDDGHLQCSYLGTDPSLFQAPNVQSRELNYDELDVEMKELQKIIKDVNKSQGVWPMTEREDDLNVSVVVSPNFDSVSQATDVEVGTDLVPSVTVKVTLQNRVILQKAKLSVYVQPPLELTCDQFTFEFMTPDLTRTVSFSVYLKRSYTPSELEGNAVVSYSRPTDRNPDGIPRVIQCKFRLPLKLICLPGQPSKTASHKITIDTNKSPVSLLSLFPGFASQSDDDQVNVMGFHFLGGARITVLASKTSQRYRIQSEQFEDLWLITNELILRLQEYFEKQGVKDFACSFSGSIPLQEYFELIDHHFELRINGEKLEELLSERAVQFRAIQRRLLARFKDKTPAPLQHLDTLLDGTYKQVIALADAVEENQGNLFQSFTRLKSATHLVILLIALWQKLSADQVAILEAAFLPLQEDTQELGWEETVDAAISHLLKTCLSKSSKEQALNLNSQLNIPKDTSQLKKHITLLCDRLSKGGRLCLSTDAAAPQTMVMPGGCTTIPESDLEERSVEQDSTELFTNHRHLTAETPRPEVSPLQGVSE
B2: Isoform 2 of Bardet-Biedl syndrome 7 protein (Homo sapiens), Q8IWZ6-2 (parent)
chain: MDLILNRMDYLQVGVTSQKTMKLIPASRHRATQKVVIGDHDGVVMCFGMKKGEAAAVFKTLPGPKIARLELGGVINTPQEKIFIAAASEIRGFTKRGKQFLSFETNLTESIKAMHISGSDLFLSASYIYNHYCDCKDQHYYLSGDKINDVICLPVERLSRITPVLACQDRVLRVLQGSDVMYAVEVPGPPTVLALHNGNGGDSGEDLLFGTSDGKLALIQITTSKPVRKWEIQNEKKRGGILCIDSFDIVGDGVKDLLVGRDDGMVEVYSFDNANEPVLRFDQMLSESVTSIQGGCVGKDSYDEIVVSTYSGWVTGLTTEPIHKESGPGEELKINQEMQNKISSLRNELEHLQYKVLQERENYQQSSQSSKAKSAVPSFGINDKFTLNKDDASYSLILEVQTAIDNVLIQSDVPIDLLDVDKNSAVVSFSSCDSESNDNFLLATYRCQADTTRLELKIRSIEGQYGTLQAYVTPRIQPKTCQVRQYHIKPLSLHQRTHFIDHDRPMNTLTLTGQFSFAEVHSWVVFCLPEVPEKPPAGECVTFYFQNTFLDTQLESTYRKGEGVFKSDNISTISILKDVLSKEATKRKINLNISYEINEVSVKHTLKLIHPKLEYQLLLAKKVQLIDALKELQIHEGNTNFLIPEYHCILEEADHLQEEYKKQPAHLERLYG
partner: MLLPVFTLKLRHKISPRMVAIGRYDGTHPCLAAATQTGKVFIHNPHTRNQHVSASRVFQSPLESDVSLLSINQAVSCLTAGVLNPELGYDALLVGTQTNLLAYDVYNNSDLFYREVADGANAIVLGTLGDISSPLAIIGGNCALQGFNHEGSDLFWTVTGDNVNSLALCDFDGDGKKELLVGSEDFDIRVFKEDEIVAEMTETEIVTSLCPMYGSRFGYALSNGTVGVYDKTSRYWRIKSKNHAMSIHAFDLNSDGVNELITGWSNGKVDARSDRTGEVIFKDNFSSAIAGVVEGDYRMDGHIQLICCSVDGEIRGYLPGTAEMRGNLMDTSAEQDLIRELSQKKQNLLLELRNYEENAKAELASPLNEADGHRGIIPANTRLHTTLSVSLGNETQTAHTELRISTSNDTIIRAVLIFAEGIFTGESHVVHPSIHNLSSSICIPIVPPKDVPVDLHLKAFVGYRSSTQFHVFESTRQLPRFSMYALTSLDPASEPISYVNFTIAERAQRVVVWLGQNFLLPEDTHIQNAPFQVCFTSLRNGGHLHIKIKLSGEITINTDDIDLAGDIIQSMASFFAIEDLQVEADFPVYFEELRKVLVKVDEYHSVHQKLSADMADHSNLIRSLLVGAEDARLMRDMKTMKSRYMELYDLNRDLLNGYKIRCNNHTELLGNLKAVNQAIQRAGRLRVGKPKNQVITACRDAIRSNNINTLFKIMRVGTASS

Variants of: B1
Settings: with pthb1_human BBS9, Q3SYG4

Variant | effect of a mutation on the interaction
Q21A | with no effect
L253A | with no effect
S224A | with no effect
A94K | with no effect
S246K | with no effect
S214E | with no effect
L88K | with no effect
M340K | with no effect
R56E | disrupting interaction strength
P275E | with no effect
T80A | disrupting interaction strength
I187E | with no effect

Variants of: B2
Settings: with bbs2_human BBS2, Q9BXC9

Variant | effect of a mutation on the interaction
G327A | with no effect
G327E | with no effect
G327K | with no effect
I334E | with no effect
I334A | with no effect
I334K | with no effect
N388E | with no effect
N388A | with no effect
E348K | with no effect
E348A | with no effect
Q364K | with no effect
Q364A | with no effect
Q364E | with no effect
H351K | with no effect
H351E | with no effect
H351A | with no effect
E331A | with no effect
E331K | with no effect
N340K | with no effect
N340A | with no effect
N340E | with no effect

Variant | effect of a mutation on the interaction
K355E | with no effect
K355A | with no effect
L352K | with no effect
L352A | with no effect
L352E | with no effect
F379A | with no effect
F379E | with no effect
F379K | with no effect
A375K | with no effect
A375E | with no effect
Y363A | with no effect
Y363E | with no effect
Y363K | with no effect
E337A | with no effect
E337K | with no effect
N382K | with no effect
N382A | with no effect
N382E | with no effect
G329K | with no effect
G329E | with no effect
G329A | with no effect

Variant | effect of a mutation on the interaction
Q353K | with no effect
Q353E | with no effect
Q353A | with no effect
I342A | with no effect
I342E | with no effect
I342K | with no effect
N335A | with no effect
N335E | with no effect
N335K | with no effect
S374K | with no effect
S374E | with no effect
S374A | with no effect
L345K | with no effect
L345E | with no effect
L345A | with no effect
Q336K | with no effect
Q336A | with no effect
Q336E | with no effect
S378K | with no effect
S378A | with no effect
S378E | with no effect

Variant | effect of a mutation on the interaction
S367A | with no effect
S367E | with no effect
S367K | with no effect
A372E | with no effect
A372K | with no effect
P328K | with no effect
P328E | with no effect
P328A | with no effect
K371A | with no effect
K371E | with no effect
D383E | with no effect
D383A | with no effect
D383K | with no effect
Q358K | with no effect
Q358A | with no effect
Q358E | with no effect
K373A | with no effect
K373E | with no effect
